Literature values in article PMC3977038.
pKd: −log10 of the molar value.

Target: FcεRIα (Homo sapiens) (UniProt P12319)
Sequence (P12319 26-257): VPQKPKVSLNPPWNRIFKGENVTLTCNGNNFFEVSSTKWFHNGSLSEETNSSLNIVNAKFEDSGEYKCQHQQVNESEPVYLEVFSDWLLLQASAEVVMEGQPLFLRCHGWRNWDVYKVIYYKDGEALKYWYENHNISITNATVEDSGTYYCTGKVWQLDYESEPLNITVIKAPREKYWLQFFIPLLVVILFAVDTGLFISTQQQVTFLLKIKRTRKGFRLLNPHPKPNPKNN

IgE-Fc Fc, sequence (P01854 105-426): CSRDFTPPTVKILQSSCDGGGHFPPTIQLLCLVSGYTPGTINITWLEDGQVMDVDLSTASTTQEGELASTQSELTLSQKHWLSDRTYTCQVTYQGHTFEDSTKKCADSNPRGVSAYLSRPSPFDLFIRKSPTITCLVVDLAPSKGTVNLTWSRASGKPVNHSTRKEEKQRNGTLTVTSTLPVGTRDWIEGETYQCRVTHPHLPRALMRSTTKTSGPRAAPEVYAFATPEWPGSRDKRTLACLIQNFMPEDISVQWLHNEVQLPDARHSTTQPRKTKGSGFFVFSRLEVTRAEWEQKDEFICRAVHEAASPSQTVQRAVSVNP

pKd: 10.00
Substance: IgE-Fc Fc (from UniProt P01854)
